The assay concerns the target human IgG (Sigma) (human). Put plainly: ELISA: SPA′ coated at 5 µg/mL, human IgG 25 µg/mL, detection with HRP-labeled protein L, absorbance at 405 nm.

As for “SPA′ (part of protein A of Staphylococcus aureus Cowan I strain (JCM2179) except for the signal sequence (S domain) and the cell wall-binding domain (X domain)), produced by Brevibacillus choshinensis HPD31-OK having Spa′-pNK3260 (from UniProt P38507 37-327)”, the human IgG-binding activity per unit mass, relative to protein A manufactured by Repligen is 97%.

For the origin of these results see patent US20070243582A1.
